# Reference: publication PMC6054995
# Target: Marchantia polymorpha 3-phosphoglycerate dehydrogenase, recombinant, without the transit peptide (Marchantia polymorpha)
# Test: SEC; HiPrep 16/60 Sephacryl S-300 HR, 0.5 mL/min, 100 mM sodium phosphate buffer (pH 9.0); mass estimated from a standard curve of thyroglobulin, apoferritin, beta-amylase, albumin and carbonic anhydrase
substance,measurement,value
"Marchantia polymorpha 3-phosphoglycerate dehydrogenase, recombinant, without the transit peptide (enzyme)",stoichiometry N,4
